Experiment: yeast display, Sf9 membrane polyspecificity reagent, FACS + sequencing; frameworks hold sequencing errors
Method in brief: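 In a synthetic yeast display library (Saccharomyces cerevisiae BJ5465), nanobody expression was induced with galactose for 36–48 hours. FACS gates were set low and high (top ~1%) using anti-HA fluorescence for expression and streptavidin fluorescence for binding of the Sf9 membrane reagent. Each polyreactivity label is drawn from the gate of origin.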

Q: With “QGQLVDSGGGLVQAGGSLRLSCAASGSTFKNNAMGWYRQAPGKEREFVASISKRGGSTYYADSVKGRFTISRDNAKNTVYLQMNSMKPEDTAVYYCAKTYWSYGLSHGDYGEFDYWGQGTQVTVSS” as the sequence, how does the “polyreactivity (PSR sort gate)” value read?
A: high polyreactivity

Q: With “QGQLVESAGGLVQAGGSLRLSCAASGSILWHYAMGWYRQAHGKERELVAAISGSGSTIYADSVKGRFTISRDNAKNTVYLQLITLKPEDTADYYCARVHGTSESKYYYWGQGTQVTVSL” as the sequence, how does the “polyreactivity (PSR sort gate)” value read?
A: low polyreactivity

Q: With “QGQLVESGAGLVKAGGSLRISCAASGYTFPSNARAWYRHAPGTPRQLVAAISSGGRTNYADSLKGRFTISRDNAKNTVYLQMNRLKPEDTAVYNCNADGGPGYPSAYDYWVQGTQVTVSS” as the sequence, how does the “polyreactivity (PSR sort gate)” value read?
A: low polyreactivity

Q: With “QGQLVESGGCLVQAGGSLRLSCAASGRTFYRNAMCLYRQSPGKERELVAVISSSGVRTYYADSVKGRFTISRDNAKNTVYLQMNSLKPEDTAVYYCAADSNSYYRGFDYWGQGTQVTVSS” as the sequence, how does the “polyreactivity (PSR sort gate)” value read?
A: high polyreactivity

Q: Which “polyreactivity (PSR sort gate)” value does the source give for “QGQLVESGGGLVQAAGSLSLSCAASGRIYPYAMGWYRQAPGKERELVAAIPVNDGSTYYADSVTGRFTIARDNAMISVDLQMNSRKPEVSAVYYWKADYPIGWRNQYVQILYDYWGQGTQVTVSS” here?
A: low polyreactivity

Q: Which “polyreactivity (PSR sort gate)” value does the source give for “QGQLVESGGGLVQAGGSLPLSCAASGFTFRWNTMGWSRQGPGKEREFVASISQRGGRTFYADSVKGRFTISRDNAKNTVYIQMNCQKPEDTAVYFCNARGHRAVPGDELGYWGQGTQVTVSS” here?
A: low polyreactivity

Q: Which “polyreactivity (PSR sort gate)” value does the source give for “QGQLVESGGGLVQAGGSLRISCGASGYIFGDKAMGWYRPEPGKARELVAAITQTGANTYYADSVMGRFTISRDNAKNTVYLQMNSLKPEDSAVYYCNKVSVVYSRSKGFYYTYLKYEFWGQGTQVTVSS” here?
A: low polyreactivity

Q: With “QGQLVESGGGLVQAGGSLRLSCAASGFIFSIYAMGWYRQAPGKDRELVAGIDNGGGTYYADSGKGRFTISRDNAKNTVYLQMNRLKPEDTAVYYCAADTYSIGELYDYWGQGTQVTVSS” as the sequence, how does the “polyreactivity (PSR sort gate)” value read?
A: low polyreactivity

Q: With “QGQLVESGGGLVQAGGSLRLSCAASGFTFDYYAMGWYRQAPGKARELVAAITTAASTNYADSVKGRFTISRDTAKNTVYFQMNSLKPEDTAVYYCAASWWPWYISWDDYWGQGTQVTVSS” as the sequence, how does the “polyreactivity (PSR sort gate)” value read?
A: high polyreactivity

Q: Which “polyreactivity (PSR sort gate)” value does the source give for “QGQLVESGGGLVQAGGSLRLSCAASGFTFPHYAMGWYRQAPGKERELVAAISWSGGSTFSADSVKGRFTISRDTAKNNVYLQMNSLKPADTAVYYCAARSRSWTPYYYWGQGTQVTVSS” here?
A: high polyreactivity

Q: For “QGQLVESGGGLVQAGGSLRLSCAASGFTFTSNAMGWYRQAPGQERELVAVISTRGGSTFYADSGKGRFTISRDNAKNTVYLQMNSLKPEDTAVYYCAADSTDYRWTAYYWGQGTQVTVSS”, which “polyreactivity (PSR sort gate)” value is on record?
A: high polyreactivity

Q: With “QGQLVESGGGLVQAGGSLRLSCAASGFTLLPYAMGWYRQAPGKERELVAAISRRGVSTYYADSVKGRFTISRDNAKNTVYLQMISLKPEDTAVYYCAAKYRKWPMDYWGQGTQVTVSS” as the sequence, how does the “polyreactivity (PSR sort gate)” value read?
A: high polyreactivity

Q: With “QGQLVESGGGLVQAGGSLRLSCAASGIIFGGYTMGWYRQAPGKERELVAAITKRTDRTYYADSVKGRFTISRDNAKNTVYLQMHSMKPEDTAVYYCATRGGITRPWYGYDYWGQGTQVTVSS” as the sequence, how does the “polyreactivity (PSR sort gate)” value read?
A: high polyreactivity

Q: For “QGQLVESGGGLVQAGGSLRLSCAASGLIFVWYAMGWYRQARGKERELVAAISWSGGSTYYADSVKGRFTISRDNAKNTVYLQMNSLKPEDTAVYYCATDPYGYSYLLVDYNYWGQGTQVTVSS”, which “polyreactivity (PSR sort gate)” value is on record?
A: low polyreactivity

Q: Which “polyreactivity (PSR sort gate)” value does the source give for “QGQLVESGGGLVQAGGSLRLSCAASGRIFRANAMGWYRQAPGKERELVAAIDASGGSTYYADSVKGRFTISRDNAKNTVYLQMNSLKPEDTAVYDCAADRGFLRSFAPGNMDYWGQGTQVTVSS” here?
A: low polyreactivity

Q: For “QGQLVESGGGLVQAGGSLRLSCAASGRTFWYYTIGWYRQAPGKERELVAAISSGGRTNYADSVKGRFTISRDNAKNPVYLQMNSLKPEDTAVYYCASSRYYKYVERDYWGQGTQVTVSS”, which “polyreactivity (PSR sort gate)” value is on record?
A: high polyreactivity

Q: With “QGQLVESGGGLVQAGGSLRLSCAASGSIFDLNAMGWYRQAPGKERELVAAISSGGGTYYADSVKGRFTISRDNAKNTVYLQMNCLKPEDTAVYYCNRVTRWTYNYWGQGTQVTVSS” as the sequence, how does the “polyreactivity (PSR sort gate)” value read?
A: high polyreactivity

Q: For “QGQLVESGGGLVQAGGSLRLSCAASGSIFTFYTLGWYREAPGKVRELVAAINWSGSRTYYAASVKGRFTISRDNAKNTVYLQMNSLKPEDTAVYYCNAAIRYDWYQVLWNFSRESNYWGQGTQVTVSS”, which “polyreactivity (PSR sort gate)” value is on record?
A: high polyreactivity

Q: Which “polyreactivity (PSR sort gate)” value does the source give for “QGQLVESGGGLVQAGGSLRLSCAASGSIFVQNAMGWYRQAPGKEREFVAVINSGDSTNYADSVKGRFTISRDIAKNTVYLQMNSLKADDTAVYYCAVDDVSYYYLRAYNYELSWYGSGLDYWGQGTQVTVSS” here?
A: low polyreactivity

Q: Which “polyreactivity (PSR sort gate)” value does the source give for “QGQLVESGGGLVQAGGSLRLSCAASGSTFRNYAMGWYRQAPGKERELVAAISGSGGRTNYADSVKGRFTISRDNAKNTVYLQMNSLKPEDTAVYYCNARFPDWALSEISLSTTYGYWGQGTQVTVSS” here?
A: low polyreactivity

Q: With “QGQLVESGGGLVQAGGSLRLSCAASGSTIPVNAMAWYRQAPGKERELVAAITWGDGSTSYADSVKGRFTISRDNAKNTVYLQMNSLKPEDTAVYYCNKDFIYGYDAASYRPEYDYWGQGTQVTVSS” as the sequence, how does the “polyreactivity (PSR sort gate)” value read?
A: low polyreactivity

Q: With “QGQLVESGGGLVQAGGSLRLSCAASVFTFAFYTMGWYRQATGKERELVAANTRSGGSTYYPDSVKGRFTISRDNAKNTVYLQRNSLKPEDTPVYYCAARGNTPRTRRYGYWGQGTQVTVSS” as the sequence, how does the “polyreactivity (PSR sort gate)” value read?
A: high polyreactivity

Q: For “QGQLVESGGGLVQAGGSLRLSCAAYGSIYRNYAMGSYRQAPGKEREFVAAITTRGGRTYYADSVKGRFTISRDNAKNPVYLQINSLKPEDTAVYYCAARSYSEYNYWGQGTLVTVSS”, which “polyreactivity (PSR sort gate)” value is on record?
A: high polyreactivity

Q: For “QGQLVESGGGLVQAGGSLRLSCPASGRTFYGYAMGWYRQAPGKERELVAAITSSGGSTYYADSVKGRFTISRDHAKNTVYLQMNSLIPEDTAVYYCAAPSSRGQGRNFDYWGQGSQVTVSS”, which “polyreactivity (PSR sort gate)” value is on record?
A: high polyreactivity

Q: Which “polyreactivity (PSR sort gate)” value does the source give for “QGQLVESGGGLVQAGGSLRLSSAASGSTFAHYAMGWYRQAPGKERELVAAISRGGGSTYYADSVKGRFTISRDNAKNTVYVQMNSLKPEDTAVYYCAADPRYRVTLGFDYWGQGTQVTVSS” here?
A: high polyreactivity

Q: For “QGQLVESGGGLVQAGGSLSLSCAASRLTFYSNAMGWYRPAPGKEREMVAAISWIGASTYYADSVKGRFPISRDNAKNTVYLQMNSLKPEDTAVYYCAARAQARVFGWRFYYWGQGTQVTVSS”, which “polyreactivity (PSR sort gate)” value is on record?
A: high polyreactivity

Q: Which “polyreactivity (PSR sort gate)” value does the source give for “QGQLVESGGRLVQAGGSLRVSCAASGLTFNYYAMRWYRPAPGKERELVASISRSGGSTYYADSVKGRFTISRDNAKNTVYLQMNSLKPVDTAVYYCAAYRRRTYAVNKEGGYWGQGTQVTVSS” here?
A: high polyreactivity

Q: Which “polyreactivity (PSR sort gate)” value does the source give for “QGQLVESGRGLVQAGGSLRLSCAASGRIFYSYAMGWYRQAPGKERELVAAISSGGSTKYADSVKGRFTISRDNAKNTVYLQMNSLKPEDTAVYYCAARTYQKGGRYYYWGQGTQVTVSS” here?
A: high polyreactivity

Q: With “QGQLVESRGGLVQAGGSLRLICAASGFIFFIKSMGWYRQAPGKERELVAAINWTGGSTYADSVKGRFTISRDNAKNTVYLQMNSLKPEDTAVYYCAADPWDIYRRLSQGDHDYWGQGTQVTVSS” as the sequence, how does the “polyreactivity (PSR sort gate)” value read?
A: low polyreactivity

Q: For “QGQLVETGGGLVQAGGSLRLSCAASGRSSVSMLMGWYRQPPGKERELVARITGSGGSTFYADSVKGRFTISRDNAKNTVYLQMNSLIPEDTAVYYCAAGYLWRGRYNYWGQGTQVTVSS”, which “polyreactivity (PSR sort gate)” value is on record?
A: high polyreactivity

Q: With “QGQLVETGGGLVQAGGSLRLSCDASGSIFYSNRGSYRQAPGKESEFVSAISGSGVRTYYADSLKGRFTISRDNAKNTVYLQMNSLKPEDNEVYYCNAGRRQDYRYNYWGQGTQVTVSS” as the sequence, how does the “polyreactivity (PSR sort gate)” value read?
A: high polyreactivity

Q: Which “polyreactivity (PSR sort gate)” value does the source give for “QGQPVESGGGLVQAGGSLRLSCAASGLIFRWYAMGWNRQAPVQEREVVAAISWSGASTYYADSVKGRFTISRDTPKNTVYLQMNSLKPDDTAVYYCAADYGYYGAGSYFDRGDYWGQGTQVTVSS” here?
A: high polyreactivity

Q: For “QGQRVESAGGLVQAGGSLRLSCAASGITFARNVMGWSRQAPGQERELVAAISRGDSTYYADSVKGRFTISRDNAKNTVYLQLNSLKPEDTAVYYCAAAVKHVAYHYNYWGQGTQVTVSS”, which “polyreactivity (PSR sort gate)” value is on record?
A: high polyreactivity

Q: For “QGQRVESGGGLVQAGGSLRLSCAASGSIFSYNTMGWYRQAPGKEREFVATIDWRDGSTYYADSVKGRFTISRDNAKNTVYLQMNSLKPEDTAVYYCATYYIVVEDNYWGQGTQVTVSS”, which “polyreactivity (PSR sort gate)” value is on record?
A: high polyreactivity

Q: With “QLKHEESRGGLVQAGGSLRLSCAASGSTIYTYVMGWYRQAPGNERELVAAISWSGSSTYYADSVKGRFTISRDNAKNTVYLHMNSLKPEDTAVYYCNADPSQHTSAGYSSYEYYYWGQGTQVTVSS” as the sequence, how does the “polyreactivity (PSR sort gate)” value read?
A: low polyreactivity

Q: For “QLQHVESGGGLVQAGGSLRLSCAASGRIFGVNAQGWYRQAPGKERELVAAITSGGSTYYADSVKGRFTISRDNAKNTVYLQMKSLKPEDTAVYYGAARYYYLLWYTLPTKYDYWGQGTQVTVSS”, which “polyreactivity (PSR sort gate)” value is on record?
A: high polyreactivity

Q: With “QLQLEESGGGLVQAGGSLRISCDASGTIFGNYAMGWYRQAPGKERELVAAITGSGGRTYYADSVKGRFTISRDNAKNTVYLQMNSLKPEDTAVYYCAARSYGRWYYTLYNYWGQGTQVTVSS” as the sequence, how does the “polyreactivity (PSR sort gate)” value read?
A: high polyreactivity

Q: Which “polyreactivity (PSR sort gate)” value does the source give for “QLQLEESGGGLVQAGGSLRLSCAASVRTLRRNAMGWYRQAPGKEKELVAAITGSGGSTYYADSVKGRFTISRDNAKNTVYLQMNSLKPEDTAVYYCAARGPSRRRDGSDYWGQGTQVTVSS” here?
A: high polyreactivity

Q: For “QLQLEESGGGLVQAGGSLRLSCAAYGNILGYNAMGWYRQAPGKERELVAAISDNADSTYYADSVKGRFTISRDNAKNTVYLQMNSLKPEDPAVYYCAADWVLRTWLFWYTKYDYWGQGTQVTVSS”, which “polyreactivity (PSR sort gate)” value is on record?
A: low polyreactivity

Q: Which “polyreactivity (PSR sort gate)” value does the source give for “QLQLQESGGGLVQAGGSLRLSCAASGSISHYIFMGWYRKAPGKEREFVAGIGYGGTTNYADSVKGRFTISRDNAINNVYLQMNSLKPEDTAMYYCAAREATEFYLYYWGQGTQVTVSS” here?
A: low polyreactivity

— the nanobody polyreactivity screen of Harvey et al. (2022)
